PMC6957492, “Assembly and substrate recognition of curli biogenesis system” (Nature Communications, 2020)
Residue numbers refer to the chain shown, from its start. “Also recorded” adds a separate entry of the source.

B1: N11A (protein)
chain: GTMTFQFRNPAFGGNPNNGAFLLNSAQAQNSYKDPSYNDDFGIETPSALDNFTQAIQSQILGGLLSNINTGKPGRMVTNDYIVDIANRDGQLQLNVTDRKTGQTSTIQVSGLQNNSTDF
modifications: left off: MBP, end not stated, kept | His tag (from the Ni-NTA purification), end not stated, state not stated
B2: R8A (protein)
chain: B1 chain with R8A, A11N
modifications: left off: MBP, end not stated, kept | His tag (from the Ni-NTA purification), end not stated, state not stated
B3: F5D (protein)
chain: B1 chain with F5D, A11N
modifications: left off: MBP, end not stated, kept | His tag (from the Ni-NTA purification), end not stated, state not stated
B4: L22D (protein)
chain: B1 chain with A11N, L22D
modifications: left off: MBP, end not stated, kept | His tag (from the Ni-NTA purification), end not stated, state not stated
B5: F12D (protein)
chain: B1 chain with A11N, F12D
modifications: left off: MBP, end not stated, kept | His tag (from the Ni-NTA purification), end not stated, state not stated
B6: F7D (protein)
chain: B1 chain with F7D, A11N
modifications: left off: MBP, end not stated, kept | His tag (from the Ni-NTA purification), end not stated, state not stated
B7: L23D (protein)
chain: B1 chain with A11N, L23D
modifications: left off: MBP, end not stated, kept | His tag (from the Ni-NTA purification), end not stated, state not stated
B8: N9A (protein)
chain: B1 chain with N9A, A11N
modifications: left off: MBP, end not stated, kept | His tag (from the Ni-NTA purification), end not stated, state not stated
B9: F21D (protein)
chain: B1 chain with A11N, F21D
modifications: left off: MBP, end not stated, kept | His tag (from the Ni-NTA purification), end not stated, state not stated

Key:
CsgB = test: Pulldown assay of CsgB by CsgF domains; assay type: binding, E. coli; settings: CsgB C-terminal MBP tag, CsgF parts N-terminal MBP tag; western blot
Method: After incubation for 20 min, the mixture was loaded to a Strep-Tactin column (IBA). The beads were washed four times with a buffer having 25 mM Tris-HCl at pH 8.0, 150 mM NaCl, and eluted in a buffer having 25 mM Tris-HCl at pH 8.0, 150 mM NaCl, and 2.5 mM desthiobiotin. […] The samples were analyzed by 15% SDS–PAGE and detected by western blotting.

CsgG = test: Pulldown assay of CsgF variants/domains with CsgG as bait; assay type: binding, E. coli K12; settings: CsgF variants with C-terminal MBP tag
Method: The procedure of CsgG purification was similar to that of the CsgFG complex. […] After incubation for 30 min, the mixture was loaded into a Strep-Tactin column (IBA). […] Individual CsgG and CsgF variants were purified as input by Strep-Tactin and Ni-NTA, respectively. The samples were analyzed by 15% SDS–PAGE and stained with Coomassie blue.
CsgFGBD-MBP mutant variants were purified as soluble protein by Ni-NTA. CsgG were purified as membrane protein by Strep-Tactin and substituted by amphipole A8-35. CsgFGBD-MBP mutant variants (36 μM) and CsgG nonamer (2 μM) were mixed together at 4 °C for 2 h and then incubated with equal volume of Strep-Tactin beads at 4 °C for 1 h.
Supplementary Figure 5. Interaction mode between CsgFN and CsgG. a, Interaction of CsgFN and CsgG. […] Two adjacent subunits of CsgG are shown in magenta and cyan, respectively. b, Hydrogen bonds and electrostatic interaction between CsgFN and CsgG. Hydrogen bonds are shown as red […]
aromatic residues in CsgG. d, The hydrophobic interaction between CsgFN and CsgG. e, Pulldown assay between the CsgF(C-terminal MBP tag) mutant variants and CsgG. […] Source data are provided as a Source Data file.
(1 picture or pasted object on this page, not shown here)

[1] = test system: curli cell association in E. coli K-12 strain BW25113; test: Congo red cell-association assay; assay type: cell-based, E. coli K-12 BW25113; settings: CsgF variants, scraped YESCA plates after 48 h
Method: The E. coli K-12 strain BW25113 wild type (WT) and mutants were cultured overnight in LB at 37 °C. To induce curli production, 5 μl sample was spotted on YESCA plates (10 g/L casamino acids, 1 g/L yeast extract, and 20 g/L Bacto agar) supplemented with 100 μg/ml ampicillin and 90 μg/ml Congo red. The plates were incubated at 26 °C for 48 h. […] For overexpression assay in the ΔCsgE mutant strain, 3 μM IPTG was also supplemented in the YESCA plates.
For the Congo red cell-association assay, after growing in YESCA plates for 48 h, the cells were scraped from the plates and the scraped plates were observed. The remaining plates with curli cell association appeared white, while the remaining plates without curli cell association appeared red.

Molecule | pulldown of CsgB (CsgB) | CsgF-CsgG interaction in pulldown (CsgG) | Congo red cell-association phenotype [1]
CsgFN: N-terminal domain of CsgF (CsgFN, residues 1–36) | could not pulldown CsgB | CsgG can pulldown both the full-length CsgF and CsgFN | –
B1 | – | did not show any detectable influence on CsgF-CsgG interaction | –
B2 | – | showed reduced interaction between CsgF and CsgG | –
B3 | – | abolished the interaction between CsgF and CsgG | nearly eliminated
B4 | – | showed reduced interaction between CsgF and CsgG | –
B5 | – | abolished the interaction between CsgF and CsgG | nearly eliminated
B6 | – | abolished the interaction between CsgF and CsgG; also recorded: didn’t see binding | nearly eliminated
B7 | – | showed reduced interaction between CsgF and CsgG | –
B8 | – | showed reduced interaction between CsgF and CsgG | –
B9 | – | did not show any detectable influence on CsgF-CsgG interaction | –
